Test results as given in patent US6015560.
Where two headings read alike, the source gives them in different places.

Tests used:
[1] = target: integrin complement receptor 3 (CR3) on human leukocytes (human) (UniProt P11215)
[2] = target: integrin complement receptor 3 (CR3) on human leukocytes (human) (UniProt P11215); test: competition: 125I-Factor X binding to fMLP-stimulated human neutrophils
[3] = target: integrin complement receptor 3 (CR3) on human leukocytes (human) (UniProt P11215); remark: listed apart in the source
[4] = target: integrin complement receptor 3 (CR3) on human leukocytes (human) (UniProt P11215); remark: listed apart in the source
[5] = target: integrin complement receptor 3 (CR3) on human leukocytes (human) (UniProt P11215); test: macrophages spread on antibody-coated wells; residual CD11b/CD18 detected with C3bi-coated erythrocytes
[6] = target: integrin complement receptor 3 (CR3) on human leukocytes (human) (UniProt P11215); remark: listed apart in the source
[7] = target: integrin complement receptor 3 (CR3) on human leukocytes (human) (UniProt P11215); remark: listed apart in the source

| Substance | % inhibition of 125I-Factor X binding [1] [%] | IC50 [2] [nM] | % Inhibition of TEM (transendothelial migration of neutrophils) [3] [%] | concentration at which inhibition of neutrophil adherence was lost [4] [µM] | % reduction of the binding of C3bi-coated erythrocytes to macrophages [5] [%] | inhibition of transendothelial migration of neutrophils [6] [%] | % inhibition of 125I-Factor X binding [2] [%] | inhibition of neutrophil adherence to TNF-stimulated HUVEC [7] [%] |
| --- | --- | --- | --- | --- | --- | --- | --- | --- |
| Filamentous hemagglutinin (FHA) of Bordetella pertussis, native purified protein (from UniProt P12255) (ligand) | 70 | 100 | 82 | 0.001 |  |  |  |  |
| mAb IB4 against CD18 (antibody) |  |  |  |  | 67 | 73 | 53 | 38 |
| mAb W6/32 against HLA class I antigen (antibody) |  |  |  |  |  | 6 |  |  |
